Reference: patent US20250171542A1 (ADEPT THERAPEUTICS, published 2025)

B1: 32E2 (antibody, human IgG1, V domains shown)
VH: QEQLEESGGDLVKPEGSLTLTCTASGFSFSSSYYMSWVRQAPGMGLEWIASISGGVTDNAYYASWAKGRFTVSKTSSTTVTLQLTSLTAADTATYFCARDSSSGYFFLLWGPGTLVTVSS
VL: LVMTQTPSSVSAAVGGTVTINCQASQNIYSNLAWYQQKPGQRPKLLIFGASNLRSGVPSRFKGSGSGTEYTLTISDLECADAATYYCQEGYSIGNVDNPFGGGTEVVVK
B2: 33E8 (antibody, human IgG1, V domains shown)
VH: QSLEESGGDLVKPGASLTLTCTASGFYFSSGYDMSWVRQAPGKGLEWIASIFTTSGSTWYANWAKGRFTISKTSSTTVTLQMTSLTDADTATYFCTKDGVGSFYMNLWGPGTLVTVSS
VL: LVMTQTPASVEVAVGGTVTIKCQASQTIGSNLAWYQQRPGQPPKLLIYKAFTLASGVSSRFKGSGSGTQFTLTISGVECADAATYYCQQGATRINIDNAFGGGTEVVVK
B3: 33H7 (antibody, human IgG1, V domains shown)
VH: QEQLVESGGGLVQPEGSLTVTCTASGFDLSRYFYMSWVRQAPGKGLEWIASISTGSDITDYASWAKGRFTISKTSSTTVTLQMTTLTAADTAIYFCARWTSGGGGFGLWGPGTLVTVSS
VL: QVLTQTASPVSAAVGGTVTLNCQSSQSIYNNYLSWYQQRAGQPPKLLIYSTATLASGVPSRFKGSGSGTQFTLTISEIQCEDAATYYCQGYYSGYIWTFGGGTEVVVK

Target: T1, CD80 (Sino Biological, Cat #10698-H08H) (UniProt P33681 35-242)
T1 sequence (looked up): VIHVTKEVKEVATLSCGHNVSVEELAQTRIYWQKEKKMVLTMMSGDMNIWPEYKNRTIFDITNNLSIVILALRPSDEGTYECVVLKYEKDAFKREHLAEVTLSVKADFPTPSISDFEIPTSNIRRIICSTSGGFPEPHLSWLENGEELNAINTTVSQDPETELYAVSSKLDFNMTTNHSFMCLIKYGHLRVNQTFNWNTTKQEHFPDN
Assay: ELISA

Row | Binder | binding result
1 | B1 | no binding
2 | B2 | no binding
3 | B3 | no binding

Target: T2, BH-H2 (Sino Biological, Cat #11559-H08H) (UniProt O75144 19-258)
T2 sequence (looked up): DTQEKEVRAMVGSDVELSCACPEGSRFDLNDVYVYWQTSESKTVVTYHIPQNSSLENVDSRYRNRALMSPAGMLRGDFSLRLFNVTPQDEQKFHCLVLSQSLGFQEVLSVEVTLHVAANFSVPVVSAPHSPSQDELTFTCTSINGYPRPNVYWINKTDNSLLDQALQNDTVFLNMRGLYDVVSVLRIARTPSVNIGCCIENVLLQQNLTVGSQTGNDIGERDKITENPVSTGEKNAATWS
Assay: ELISA

Row | Binder | binding result
4 | B1 | no binding
5 | B2 | no binding
6 | B3 | no binding

Target: T3, rat PD-L1 (Sino Biological, Cat #80450-R08H) (rat, UniProt D4AE25 19-239)
T3 construct: not shown: The vendor's polyhistidine tag
T3 sequence (D4AE25 entry or part of it R08H R08H limits assumed): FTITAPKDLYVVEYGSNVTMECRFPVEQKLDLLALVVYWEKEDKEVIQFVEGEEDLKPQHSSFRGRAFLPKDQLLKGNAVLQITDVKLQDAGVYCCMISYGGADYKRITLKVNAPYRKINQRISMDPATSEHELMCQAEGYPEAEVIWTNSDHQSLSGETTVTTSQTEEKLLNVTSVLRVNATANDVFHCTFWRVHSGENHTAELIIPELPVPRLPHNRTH
Assay: ELISA

Row | Binder | binding result
7 | B1 | no binding
8 | B2 | no binding
9 | B3 | no binding

Target: T4, B7-H3 (Sino Biological, Cat #11188-H08H) (UniProt Q5ZPR3 29-461)
T4 sequence (looked up): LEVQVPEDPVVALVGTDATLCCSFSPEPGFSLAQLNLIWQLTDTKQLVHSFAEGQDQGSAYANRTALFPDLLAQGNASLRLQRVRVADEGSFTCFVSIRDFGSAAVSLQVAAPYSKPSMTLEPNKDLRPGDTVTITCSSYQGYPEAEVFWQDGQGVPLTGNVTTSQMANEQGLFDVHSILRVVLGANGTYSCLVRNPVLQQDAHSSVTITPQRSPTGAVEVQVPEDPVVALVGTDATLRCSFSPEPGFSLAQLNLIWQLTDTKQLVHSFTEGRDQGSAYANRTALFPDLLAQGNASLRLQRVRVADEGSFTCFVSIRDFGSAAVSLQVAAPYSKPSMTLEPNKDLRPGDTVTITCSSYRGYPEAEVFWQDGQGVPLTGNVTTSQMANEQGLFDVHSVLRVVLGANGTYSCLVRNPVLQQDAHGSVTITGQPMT
Assay: ELISA

Row | Binder | binding result
10 | B1 | no binding
11 | B2 | no binding
12 | B3 | no binding

Target: T5, PD-L2 (Sino Biological, Cat #10292-H08H) (UniProt Q9BQ51 20-219)
T5 sequence (looked up): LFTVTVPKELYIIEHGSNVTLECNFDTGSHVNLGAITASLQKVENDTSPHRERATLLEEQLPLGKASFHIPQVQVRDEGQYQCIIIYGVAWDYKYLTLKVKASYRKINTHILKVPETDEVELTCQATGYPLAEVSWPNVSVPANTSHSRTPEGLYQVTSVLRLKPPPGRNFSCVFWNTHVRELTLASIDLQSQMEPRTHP
Assay: ELISA

Row | Binder | binding result
13 | B1 | no binding
14 | B2 | no binding
15 | B3 | no binding

Target: mouse PD-L1 (Sino Biological, Cat #50010-M08H) (mouse, UniProt Q9EP73 19-238)
Sequence (Q9EP73 19-238 limits assumed, stated change not applied): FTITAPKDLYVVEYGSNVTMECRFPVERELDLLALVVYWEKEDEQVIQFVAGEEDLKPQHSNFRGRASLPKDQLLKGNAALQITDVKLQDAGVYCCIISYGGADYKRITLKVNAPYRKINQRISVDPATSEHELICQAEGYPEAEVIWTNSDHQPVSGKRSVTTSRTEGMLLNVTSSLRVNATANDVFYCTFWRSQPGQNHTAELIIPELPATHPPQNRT
Assay: ELISA

Row | Binder | binding result
16 | B1 | no binding
17 | B2 | no binding
18 | B3 | no binding

Target: T6, CD86 (Sino Biological, Cat #10699-H08H) (UniProt P42081 24-245)
T6 sequence (looked up): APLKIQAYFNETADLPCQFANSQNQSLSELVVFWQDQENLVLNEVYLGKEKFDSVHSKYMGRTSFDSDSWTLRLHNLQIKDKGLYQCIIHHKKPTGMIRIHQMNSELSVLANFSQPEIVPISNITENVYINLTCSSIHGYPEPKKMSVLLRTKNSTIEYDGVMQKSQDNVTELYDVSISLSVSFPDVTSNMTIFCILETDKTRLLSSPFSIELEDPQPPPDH
Assay: ELISA

Row | Binder | binding result
19 | B1 | no binding
20 | B2 | no binding
21 | B3 | no binding

Target: T7, canine PD-L1 (Acro Biosystems, Cat #PDL-C52H4) (canine, UniProt E2RKZ5 19-236)
T7 construct: not shown: The vendor's tag, probably a polyhistidine tag
T7 sequence: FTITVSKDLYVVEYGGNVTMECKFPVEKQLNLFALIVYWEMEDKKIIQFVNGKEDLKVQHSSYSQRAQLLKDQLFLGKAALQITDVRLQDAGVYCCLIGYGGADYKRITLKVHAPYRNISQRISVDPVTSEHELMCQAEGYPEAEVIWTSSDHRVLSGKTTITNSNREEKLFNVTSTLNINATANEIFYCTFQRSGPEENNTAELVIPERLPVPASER
Assay: ELISA

Row | Binder | binding result
22 | B1 | no binding
23 | B2 | no binding
24 | B3 | no binding

Target: T8, human PD-L1 expressed on cell surface (human, UniProt Q9NZQ7 19-290)
T8 construct: also called cell surface PD-L1
T8 sequence (Q9NZQ7 19-290 limits assumed): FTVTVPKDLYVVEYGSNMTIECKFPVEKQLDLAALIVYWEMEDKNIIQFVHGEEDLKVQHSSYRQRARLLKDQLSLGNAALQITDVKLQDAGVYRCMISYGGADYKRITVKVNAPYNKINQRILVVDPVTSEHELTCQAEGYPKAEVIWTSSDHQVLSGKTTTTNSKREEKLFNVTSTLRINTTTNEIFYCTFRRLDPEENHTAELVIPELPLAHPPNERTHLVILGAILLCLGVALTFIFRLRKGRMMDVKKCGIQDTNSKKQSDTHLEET
Assay: flow cytometry, MDA-MB-231-GFP cells
Method: Cells were then resuspended in FACS buffer (1×DPBS/1% FBS) at 10⁶/ml concentration. One hundred microliter (100 μl) of cells were aliquoted into a single well in 96 well plates. The antibodies to be tested were serially diluted at 1:3 fold starting at 15 ug/mL and were then added into each well. The antibodies were mixed with cells and the mixtures were incubated on ice for 1 hour. […] After washing with FACS buffer, stained cells were resuspended at diluted […] (Biolegend, Cat #420404, used at 1:100 dilution) and analyzed on Guava 11HT (Luminex). Data was analyzed using Flowjo software.
Anti-HEL isotype control (Biolntron) was used as negative control.

Row | Binder | EC50
25 | B1 | 18.5 nM
26 | B2 | 1.19 nM
27 | B3 | 0.34 nM

Target: T8, human PD-L1 expressed on cell surface
Assay: cell-based or functional assay

Row | Binder | Internalization (%), FACS, 0.25 µg/ml, 2 h | Internalization (%), FACS, 0.25 µg/ml, 4 h | Internalization (%), FACS, 0.5 µg/ml, 2 h | Internalization (%), FACS, 0.5 µg/ml, 4 h | Internalization (%), FACS, 1 µg/ml, 2 h | Internalization (%), FACS, 1 µg/ml, 4 h | Internalization (%), FACS, 2 µg/ml, 2 h | Internalization (%), FACS, 2 µg/ml, 4 h
28 | B1 | 2.2% | -25.9% | 0.4% | 5.6% | 1.1% | 7.2% | 2.4% | 7.6%
29 | B2 | 20.9% | 21.6% | 22.8% | 25.8% | 20.4% | 23.3% | 29.6% | 30.2%
30 | B3 | 15.2% | 12.3% | 17% | 14.2% | 14.4% | 12.4% | 17.8% | 12.6%
